Experimental data taken from article PMC5761661 (Biochemistry, 2017).
Read-outs that look alike come from different tables or passages of the source.

Legend:
[1] = molecular target: IpaB^28–226-Alexa568 (Shigella flexneri); test: fluorescence polarisation
[2] = molecular target: IpaB^28–226-Alexa568 (Shigella flexneri); test: fluorescence polarisation; remark: listed apart in the source
[3] = molecular target: IpaD (invasion plasmid antigen D) (Shigella flexneri, UniProt P18013); test: fluorescence polarization, single site saturation fit; type: binding; conditions: read-out: Kd (μM) ± SD ^a; labelled compound; 25 nM FITC-DOC, 0-30 μM IpaD, PBS, 23 °C, 30 min

Substance | Kd [1] | Kd [2] | Kd [3]
IpaD Y149A (from UniProt P18013 1-332) (natural protein) | 0.5 µM |  | 
IpaD D144A/N146A/Y149A triple mutant (from UniProt P18013 1-332) (natural protein) | 2.2 µM | 7.4 µM | 
Wild-type IpaD (invasion plasmid antigen D) (from UniProt P18013 1-332) (natural protein) | 2 µM |  | 
FITC-deoxycholate |  |  | 9.3 ± 1.8 µM
